The target of the assay is Gallus gallus NET1ΔC loop cd (R374A H375A K395A H399A R400A K401A) (Gallus gallus, UniProt Q90922 26-458, R374A | H375A | K395A | H399A | R400A | K401A). Kind of assay: ELISA; glypican-3 coated (0.5 µg/well); soluble NET1ΔC alone (0.5–500 nM, or 500 nM pre-incubated with HO-dp20 for competition); detection with polyclonal NET1 antibody. The following applies: both partners purified.

B1: glypican-3 (AF185614 aa 25-557 R357A) (domain or fragment)
chain: QPPPPPDATCHQVRSFFQRLQPGLKWVPETPVPGSDLQVCLPKGPTCCSRKMEEKYQLTARLNMEQLLQSASMELKFLIIQNAAVFQEAFEIVVRHAKNYTNAMFKNNYPSLTPQAFEFVGEFFTDVSLYILGSDINVDDMVNELFDSLFPVIYTQMMNPGLPESVLDINECLRGARRDLKVFGSFPKLIMTQVSKSLQVTRIFLQALNLGIEVINTTDHLKFSKDCGRMLTRMWYCSYCQGLMMVKPCGGYCNVVMQGCMAGVVEIDKYWREYILSLEELVNGMYRIYDMENVLLGLFSTIHDSIQYVQKNGGKLTTTIGKLCAHSQQRQYASAYYPEDLFIDKKILKVAHVEHEETLSSRRRELIQKLKSFINFYSALPGYICSHSPVAENDTLCWNGQELVERYSQKAARNGMKNQFNLHELKMKGPEPVVSQIIDKLKHINQLLRTMSVPKGKVLDKSLDEEGLESGDCGDDEDECIGSSGDGMVKVKNQLRFLAELAYDLDVDDAPGNKQHGNQKDNEITTSHSVGNM
modifications: three extended GAG chains are attached to the core protein
notes: Glypican-3, AF185614 aa 25-557; Heparan sulphate proteoglycan; also called GPC3; source: HEK 293 (sleeping beauty transposon system, BM40 signal peptide), purified (Strep-Tactin)
With B1, the binding result is recorded as “binds”.

Source of the values: article PMC9984387, “The dynamic nature of netrin-1 and the structural basis for glycosaminoglycan fragment-induced filament formation” (Nature Communications, 2023).
